Measured values from the supplement of paper PMC9732359.
± gives the uncertainty stated by the source.

Test: protein stability index of a GFP-peptide fusion (yeast GPS) (PSI 1-4); higher = more stable; sorted into four equal gates, so the index is relative within each strain
Method in brief: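 Sequencing reads from sorted gates were used to score each peptide. The library consisted of tiled 17-residue yeast protein peptides fused downstream of GFP on a Cherry-expressing plasmid, pooled and carried in yeast. Mid-log cultures in leucine-free medium were split into four equal gates by GFP/Cherry ratio, and each gate's plasmids were PCR-amplified and Illumina-sequenced. The protein stability index adds up, over all gates, the read frequency multiplied by the gate number.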

Sequence | protein stability index (doa10∆) | protein stability index (pdr5∆) | protein stability index (san1∆) | protein stability index (ubr1∆)
NNETEQLKAEEKKILNQ [SMC1] | 3.11 ± 0.12 | 3.15 ± 0.17 | 3.13 ± 0.17 | 3.01 ± 0.11
LLTNSNNGSSNNNTQNT [SNF5] | 2.99 ± 0.082 | 3.25 ± 0.084 | 3.17 ± 0.069 | 3.18 ± 0.055
PTLQVGDLVYARVCTAE [RRP40] | 1.5 ± 0.075 | 1.85 ± 0.12 | 1.42 ± 0.12 | 1.88 ± 0.082
TIISPHKDIPEEDFYTV [DSN1] | 3.21 ± 0.095 | 3.23 ± 0.15 | 2.44 ± 0.28 | 3.19 ± 0.054
YVAPTKKEYIELDILNK [SRB4] | 2.76 ± 0.17 | 3.25 ± 0.22 | 2.74 ± 0.13 | 2.75 ± 0.2
LLRNLESKMRQQEAKYR [YDL088C/ASM4] | 1.22 ± 0.058 | 1.61 ± 0.072 | 1.39 ± 0.14 | 1.36 ± 0.059
NQLTESASHFEQYTKKI [YJL041W/NSP1] | 2.28 ± 0.086 | 2.45 ± 0.065 | 2.76 ± 0.082 | 2.5 ± 0.095
VAQGIMNAGGRNVTIQL [RPN2] | – | 2.61 ± 0.21 | – | –
AFVKDMQVYLVPIERVA [RPC37] | 1.18 ± 0.13 | 1.39 ± 0.27 | 1.39 ± 0.19 | 1.27 ± 0.21
QLLEKAPIPIREDIDDP [BRR2] | 2.64 ± 0.064 | 2.55 ± 0.066 | 2.37 ± 0.088 | 1.92 ± 0.058
PEDALVNDFSDITSDQL [SMC3] | 3.32 ± 0.076 | 2.85 ± 0.091 | 3.15 ± 0.081 | 3.31 ± 0.062
MLETAGFSMNNPYNIVP [SMC3] | 3.17 ± 0.11 | 3.18 ± 0.09 | 3.19 ± 0.07 | 3.09 ± 0.051
KEKEAAESPEEADVEMS [PUP2] | 3.41 ± 0.11 | 3.51 ± 0.11 | 2.99 ± 0.076 | 3.28 ± 0.071
IDIDKLIQLGVKPLESS [SRP72] | 3.19 ± 0.086 | 2.87 ± 0.068 | 3.04 ± 0.055 | 2.82 ± 0.054
QPEVAVKAAINFSNVTD [YIL149C/MLP2] | 2.21 ± 0.064 | 2.44 ± 0.055 | 2.2 ± 0.071 | 2.55 ± 0.048
DPLVSLMMVEKVPDSTY [RPT6] | 2.59 ± 0.087 | 2.93 ± 0.064 | 2.49 ± 0.069 | 2.89 ± 0.063
SIFEDAIKELNYNRIAK [NUT1] | 2.79 ± 0.13 | 3.12 ± 0.19 | 3.07 ± 0.075 | 2.92 ± 0.12
IKESSKKIKGKSIQDIV [SRP21] | 3.26 ± 0.077 | 3.31 ± 0.092 | 3.33 ± 0.046 | 3.14 ± 0.12
MNRRKIAMPKRRMAFKP [YLR335W/NUP2] | 2.71 ± 0.076 | 2.35 ± 0.14 | 2.91 ± 0.071 | 3.13 ± 0.13
KDNAKISNNLALVFAAL [SRP68] | 2.24 ± 0.051 | 1.86 ± 0.038 | 1.97 ± 0.066 | 2.17 ± 0.04
IIGHNPDENKTRVRLPS [RPL2A] | 2.93 ± 0.074 | 3.09 ± 0.077 | 2.93 ± 0.046 | 3 ± 0.048
PYDKKKRVVVPQALRVL [RPL16A] | 2.32 ± 0.14 | – | – | 1.35 ± 0.14

Sequence | protein stability index (doa10∆) | protein stability index (pdr5∆) | protein stability index (san1∆) | protein stability index (ubr1∆)
LPLRLQFNEFIQIMANI [PGD1] | 1.52 ± 0.078 | 1.51 ± 0.088 | 1.28 ± 0.14 | 1.17 ± 0.084
AHSLSPKDYIKKLLEVH [CDC53] | 1.7 ± 0.042 | 2.23 ± 0.064 | 2.56 ± 0.056 | 1.77 ± 0.042
GAGSIFTSHTRLRQGAA [RPL2A] | 3.05 ± 0.1 | 3.2 ± 0.088 | 3.17 ± 0.049 | 3.25 ± 0.072
LTLIFYDVLHDVFTINP [YML103C/NUP188] | 1.7 ± 0.071 | 2.09 ± 0.051 | 2.3 ± 0.071 | 2.55 ± 0.054
TKPAIRRLARRGGVKRI [HHF1] | 3.04 ± 0.13 | 3.12 ± 0.16 | 3 ± 0.16 | 3.45 ± 0.1
KGDRALLVKLSKRLPLR [BRR2] | 2.47 ± 0.047 | 2.57 ± 0.042 | 2.34 ± 0.094 | 2.57 ± 0.042
RIYTNSFIDIMEVLGIE [RPO21] | 2.84 ± 0.059 | 2.94 ± 0.052 | 3.02 ± 0.045 | 2.81 ± 0.041
QLSNGIVVATEHNPSAH [COR1] | 2.88 ± 0.075 | 3.08 ± 0.1 | 3.2 ± 0.059 | 2.52 ± 0.074
GCIKIYSSRVDSVTTET [BRN1] | 2.43 ± 0.14 | 2.52 ± 0.13 | 2.35 ± 0.21 | 2.12 ± 0.17
REYLEEYKSLFVVGVDN [RPP0] | 3.11 ± 0.075 | 2.55 ± 0.087 | 2.91 ± 0.1 | 3.24 ± 0.071
LKSASKETAPVIDTLAA [RPL28] | 2.07 ± 0.072 | 2.41 ± 0.11 | 2.68 ± 0.073 | 2.12 ± 0.087
LIRRLVRVGVLSEDKKK [RPS9A] | 1.7 ± 0.24 | 1.45 ± 0.29 | – | 1.12 ± 0.18
RAKAEAAEFRYKYGYDM [SCL1] | 2.85 ± 0.065 | 2.91 ± 0.063 | 2.71 ± 0.058 | 2.57 ± 0.047
GELFLNESWKSSFEKFN [SRP72] | 3.23 ± 0.23 | 3.22 ± 0.11 | 2.79 ± 0.12 | 3.24 ± 0.073
NEETFTVPELEIPTQIY [ARP9] | 2.7 ± 0.065 | 2.77 ± 0.059 | 2.48 ± 0.064 | 2.92 ± 0.063
AITADLGSSEAENLLQL [YGL172W/NUP49] | – | 1.31 ± 0.21 | – | –
FQDYLTQQAVNLEKNYL [IRR1] | 2.15 ± 0.11 | 2.12 ± 0.11 | 2.02 ± 0.16 | 1.96 ± 0.11
LIQSTEFPSITSSVILG [YOR098C/NUP1] | 3.16 ± 0.12 | 3.44 ± 0.11 | 2.11 ± 0.13 | 3.17 ± 0.079
EEISRLQRDLIQTKEQV [YIL149C/MLP2] | 2.77 ± 0.095 | 2.98 ± 0.15 | 3.13 ± 0.14 | 3.11 ± 0.082
MDKKILLNINGSRKVAG [SMX2] | 1.57 ± 0.06 | 1.84 ± 0.066 | 1.81 ± 0.09 | 2.11 ± 0.047
TTESNSRLKALNLQFKA [YLR335W/NUP2] | 3.25 ± 0.11 | 3.04 ± 0.064 | 3.15 ± 0.066 | 2.98 ± 0.073
SFTLLNQLSQTNKLLFK [NUT1] | 2.81 ± 0.09 | 2.35 ± 0.055 | 2.71 ± 0.077 | 2.33 ± 0.057
